Data: US20050038611

Biological target: T1, ribosomal protein S8 (Staphylococcus aureus) (UniProt A6U3W1)
T1 sequence: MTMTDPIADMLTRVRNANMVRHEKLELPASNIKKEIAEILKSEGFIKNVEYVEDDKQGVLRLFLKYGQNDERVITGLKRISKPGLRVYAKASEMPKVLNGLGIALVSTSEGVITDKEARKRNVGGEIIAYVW
Experiment: filter
Conditions: 80 mM HEPES-KOH pH 7.6, 350 mM KOAc, 20 mM MgOAc, on ice

Substance | binding signal (fold decrease in affinity vs wild type) (apparent Kd in Table 5 not given) | Kd [nM]
S. aureus Helix 21 A604-U652 to G-C | 10 | 
S. aureus Helix 21 rRNA wild type (nts 596-659 of 16S rRNA) |  | 400
